One substance from paper PMC5549892 can be followed below.

This assay has as its target BG505 SOSIP.664 gp140 envelope glycoprotein trimer (HIV-1 (BG505)). Kind of assay: native gel or EMSA. Background: A gel shift assay detects complexes by their altered migration in electrophoresis.

For orientation: stoichiometry N means a count of units in the complex or per binding partner. For “BG505 SOSIP.664 gp140 envelope glycoprotein trimer (complex)”, the stoichiometry N turned out to be 3.
